# In article PMC4413028 (Science (New York, N.Y.), 2015):
# B1: Get3(D57N) (native, full-length S. cerevisiae Get3, ATP hydrolysis mutant) (natural protein)
# chain: MDLTVEPNLHSLITSTTHKWIFVGGKGGVGKTTSSCSIAIQMALSQPNKQFLLISTNPAHNLSDAFGEKFGKDARKVTGMNNLSCMEIDPSAALKDMNDMAVSRANNNGSDGQGDDLGSLLQGGALADLTGSIPGIDEALSFMEVMKHIKRQEQGEGETFDTVIFDTAPTGHTLRFLQLPNTLSKLLEKFGEITNKLGPMLNSFMGAGNVDISGKLNELKANVETIRQQFTDPDLTTFVCVCISEFLSLYETERLIQELISYDMDVNSIIVNQLLFAENDQEHNCKRCQARWKMQKKYLDQIDELYEDFHVVKMPLCAGEIRGLNNLTKFSQFLNKEYNPITDGKVIYELEDKE
# B2: Get3 (S. cerevisiae, wild-type) co-expressed with 6xHis-Pep12(262-288) (natural protein)
# chain: MDLTVEPNLHSLITSTTHKWIFVGGKGGVGKTTSSCSIAIQMALSQPNKQFLLISTDPAHNLSDAFGEKFGKDARKVTGMNNLSCMEIDPSAALKDMNDMAVSRANNNGSDGQGDDLGSLLQGGALADLTGSIPGIDEALSFMEVMKHIKRQEQGEGETFDTVIFDTAPTGHTLRFLQLPNTLSKLLEKFGEITNKLGPMLNSFMGAGNVDISGKLNELKANVETIRQQFTDPDLTTFVCVCISEFLSLYETERLIQELISYDMDVNSIIVNQLLFAENDQEHNCKRCQARWKMQKKYLDQIDELYEDFHVVKMPLCAGEIRGLNNLTKFSQFLNKEYNPITDGKVIYELEDKE
# Tests used:
# [1] = target: B1; assay: crystal structure
# SEC-MALS [2] = target: the molecule itself; assay: SEC-MALS
# SEC-MALS [3] = target: the molecule itself; assay: SEC-MALS; remark: listed apart in the source
# [4] = target: the molecule itself; assay: sucrose gradient sedimentation
# [5] = target: B2; assay: SEC-MALS
binding result [1],Binder,stoichiometry N (SEC-MALS [2]),further results
binds,"KINFDLLISQYAPIVIVAFFFVFLFWWIFLK (domain or fragment) [Sec22(184-214), truncated TA substrate with N-terminal 6xHis tag]",–,–
–,B1,2,–
–,6xHis-tagged Get3(D57N) (natural protein) MDLTVEPNLHSLITSTTHKWIFVGGKGGVGKTTSSCSIAIQMALSQPNKQFLLISTNPAHNLSDAFGEKFGKDARKVTGMNNLSCMEIDPSAALKDMNDMAVSRANNNGSDGQGDDLGSLLQGGALADLTGSIPGIDEALSFMEVMKHIKRQEQGEGETFDTVIFDTAPTGHTLRFLQLPNTLSKLLEKFGEITNKLGPMLNSFMGAGNVDISGKLNELKANVETIRQQFTDPDLTTFVCVCISEFLSLYETERLIQELISYDMDVNSIIVNQLLFAENDQEHNCKRCQARWKMQKKYLDQIDELYEDFHVVKMPLCAGEIRGLNNLTKFSQFLNKEYNPITDGKVIYELEDKE,–,stoichiometry N (SEC-MALS [3]): 2
–,"Get3 (S. cerevisiae, full-length, wild-type) (natural protein) MDLTVEPNLHSLITSTTHKWIFVGGKGGVGKTTSSCSIAIQMALSQPNKQFLLISTDPAHNLSDAFGEKFGKDARKVTGMNNLSCMEIDPSAALKDMNDMAVSRANNNGSDGQGDDLGSLLQGGALADLTGSIPGIDEALSFMEVMKHIKRQEQGEGETFDTVIFDTAPTGHTLRFLQLPNTLSKLLEKFGEITNKLGPMLNSFMGAGNVDISGKLNELKANVETIRQQFTDPDLTTFVCVCISEFLSLYETERLIQELISYDMDVNSIIVNQLLFAENDQEHNCKRCQARWKMQKKYLDQIDELYEDFHVVKMPLCAGEIRGLNNLTKFSQFLNKEYNPITDGKVIYELEDKE",–,stoichiometry N [4]: 2
–,B2,4,–
binds,"KRTSRWRVYLLIVLLVMLLFIFLIMKL (domain or fragment) [Pep12(262-288), truncated TA substrate with N-terminal 6xHis tag]",–,binding result [5]: binds
